# Laboratory results published in publication PMC7506995 (EMBO Molecular Medicine, 2020).
# Changes are numbered by the printed parent chain. Where two headings read alike, the source gives them in different places.
# T1: peptide P17 (Mus musculus)
# T1 chain: TWGQPHGGGWGQ
# B1: Fab13 (Fab, V domains shown)
# VH: QVQLVESGGGVVQPGRSLRLSCAASGFTFSSYGMHWVRQAPGKGLEWVAVISYEGSNKYYADSVKGRFTISRDNSKNTLYLQMNSLRAEDTAVYYCARVWSPDGYPGFDYWGQGTLVTVSS
# VL: not shown
# notes: source: E. coli BL21(DE3), purified (IMAC)
# B2: Fab53 (Fab, V domains shown)
# VH: QVQLVESGGGVVQPGRSLRLSCAASGFTFSSYGMHWVRQAPGKGLEWVAVISYEGSNKYYADSVKGRFTISRDNSKNTLYLQMNSLRAEDTAVYYCARVYVYRSYRHSSGYGYPGFDVWGQGTLVTVSS
# VL: not shown
# notes: as for B1
# B3: Fab61 (Fab, V domains shown)
# VH: B2 VH with V101P, R103P, S104Y, Y105V, R106Y, H107A, S108E, G110D, Y111G, G112S
# VL: not shown
# notes: as for B1
# B4: BB_VH3-66 (antibody, V domains shown)
# VH: EVQLVESGGGLVQPGGSLRLSCAASGFTVSSNYMSWVRQAPGKGLEWVSVIYSGGSTYYADSVKGRFTISRDNSKNTLYLQMNSLRAEDTAVYYCARSGSYGGYFDYWGQGTLVTVSS
# VL: not shown
# B5: DW_VH3-53 (antibody, V domains shown)
# VH: B4 VH with S7T, V12I, S98V, G99S, S100Y, Y101G, G103Y
# VL: not shown
# B6: Fab44 (Fab, V domains shown)
# VH: QVQLVESGGGVVQPGRSLRLSCAASGFTFSSYGMHWVRQAPGKGLEWVAVISYEGSNKYYADSVKGRFTISRDNSKNTLYLQMNSLRAEDTAVYYCARVAYAVGSSYRSSSYSPGFDVWGQGTLVTVSS
# VL: not shown
# notes: as for B1
# B7: Fab69 (Fab, V domains shown)
# VH: QVQLVESGGGVVQPGRSLRLSCAASGFTFSSYGMHWVRQAPGKGLEWVAVISYEGSNKYYADSVKGRFTISRDNSKNTLYLQMNSLRAEDTAVYYCARVHPGVHYRPGGFDYWGQGTLVTVSS
# VL: not shown
# notes: as for B1
# B8: BB_VH3-21 (antibody, V domains shown)
# VH: EVQLVESGGGLVKPGGSLRLSCAASGFTFSSYSMNWVRQAPGKGLEWVSSISSSSSYIYYADSVKGRFTISRDNAKNSLYLQMNSLRAEDTAVYYCARVSYGGYFDYWGQGTLVTVSS
# VL: not shown
# B9: DK_VH3-07 Fab (Fab, V domains shown)
# VH: EVQLVESGGGLVQPGGSLRLSCAASGFTFSSYWMSWVRQAPGKGLEWVANIKQDGSEKYYVDSVKGRFTISRDNAKNSLYLQMNSLRAEDTAVYYCARSYGGYFDYWGQGTLVTVSS
# VL: QSALTQPASVSGSPGQSITISCTGTSSDVGGYNYVSWYQQHPGKAPKLMIYEVSNRPSGVSNRFSGSKSGNTASLTISGLQAEDEADYYCTSYTSSSTHVVFGGGTKLTVL
# notes: source: expressed in bacteria (pPE2 vector), purified
# B10: Fab8 (Fab, V domains shown)
# VH: QVQLVESGGGVVQPGRSLRLSCAASGFTFSSYGMHWVRQAPGKGLEWVAVISYEGSNKYYADSVKGRFTISRDNSKNTLYLQMNSLRAEDTAVYYCARHYGGRLDYWGQGTLVTVSS
# VL: not shown
# notes: as for B1
# B11: Fab10 (Fab, V domains shown)
# VH: B10 VH with R103W, L104F
# VL: not shown
# notes: as for B1
# B12: Fab12 (Fab, V domains shown)
# VH: B10 VH with R103Q
# VL: not shown
# notes: as for B1
# B13: BB_VH3-33 (antibody, V domains shown)
# VH: QVQLVESGGGVVQPGRSLRLSCAASGFTFSSYGMHWVRQAPGKGLEWVAVIWYDGSNKYYADSVKGRFTISRDNSKNTLYLQMNSLRAEDTAVYYCAREHSYGGYFDYWGQGTLVTVSS
# VL: not shown
# B14: Fab71 (Fab, V domains shown)
# VH: B13 VH with W52S, D54E, E99H, H100V
# VL: not shown
# notes: as for B1
# B15: Fab71 (Fab, V domains shown)
# VH: B13 VH with W52S, D54E, E99H, H100V
# VL: not shown
# notes: also called anti-OR_(51-91) Fab71; source: E. coli BL21(DE3), pPE2 vector, purified by IMAC (Ni-NTA)
# Experiments:
# [1] = biological target: T2, full-length recombinant mouse PrP (recPrP23-231) (Mus musculus, UniProt P04925); experiment: ELISA; conditions: both partners purified
# T2 construct: source: recombinant, produced as described (Lysek & Wuthrich, 2004)
# human recPrP_(23-230) [2] = biological target: T3, human recPrP_(23-230) (Homo sapiens, UniProt P04156)
# human recPrP_(23-230) [3] = biological target: T3, human recPrP_(23-230); experiment: ELISA; conditions: both partners purified
# [4] = biological target: T2, full-length recombinant mouse PrP …; experiment: ELISA; conditions: both partners purified; remark: listed apart in the source
# [5] = biological target: T4, full-length recombinant mouse PrP (recPrP_(23-231)) (Mus musculus, UniProt P04925); experiment: SPR; […]; 25°C; 10 mM Tris/HCl pH 8.5, 500 mM NaCl, 3 mM EDTA, 0.05% Tween-20; 1:1 Langmuir fit; ProteOn XPR36; conditions: both partners purified
# T4 construct: source: recombinant, produced as described (Lysek & Wuthrich, 2004)
# peptide P17 = biological target: T1, peptide P17; experiment: co-IP; conditions: both partners purified
binder,measurement,setting,value
B1,binding result,[1],binds
B2,binding result,[1],binds
B3,binding result,[1],binds
B4,binding result,human recPrP_(23-230) [2],binds
B5,binding result,human recPrP_(23-230) [2],binds
B6,binding result,[1],binds
B7,binding result,[1],binds
B8,binding result,human recPrP_(23-230) [2],binds
B9,EC50,human recPrP_(23-230) [3],62.8 µM
same,binding result,human recPrP_(23-230) [3],no binding (tested: Fabs tested starting from 3 μM)
B10,binding result,[1],binds
B11,binding result,[1],binds
B12,binding result,[1],binds
B13,binding result,human recPrP_(23-230) [2],binds
B14,EC50,[4],24.9 nM
B15,Kd,[5],6.2 nM
same,koff,[5],0.00245 s⁻¹
same,binding result,peptide P17,binds
